From patent US11813280B2, “Reducing beta-catenin and IDO expression to potentiate immunotherapy” (Dicerna Pharmaceuticals, Inc., priority 2018, dated 2023)
“Also recorded” adds a separate entry of the source.

Experiments:
[1] = Siu et al., AACR abstract CT116, 2017; cited from earlier work
4T1 tumors [2] = test: 4T1 tumor growth study; assay type: in vivo, Balb/C mice; details: for anti-tumor efficacy (tumor volume): IDOi orally 100 mg/kg per dose twice daily days 4 and 6, BCAT1 iv 3 mg/kg days 5 and 6, anti-PD-1 antibody ip 5 mg/kg days 7 and 8, single, double or triple agents
Experimental: (§1) 6-8-week-old immunocompetent mice (C57BL/6 or Balb/C) were injected subcutaneously with 1.5×10^6B16F10 or 1.5×10^6 4T1 tumor cells under the right shoulder. Tumor volume was measured every 2-3 days a week to monitor tumor growth. Dosing was initiated when the tumors reached about 150-200 mm^3. […] BCAT1 formulated LNP or Placebo (scrambled CTNNB1 dsRNAi) formulated LNP was given intravenously via lateral tail vein at a total volume of 10 ml/kg. Immunotherapy treatments (anti-PD-1 antibody) were given intraperitoneally at a volume of 10 ml/kg.
(§2) Mouse cell lines B16F10 and 4T1 cells were obtained from ATCC (Manassas, Va.) and grown in RPMI/DMEM medium supplemented with 10% FBS. B16F10 cells is a murine melanoma cell line with no Wnt activation or IDO1 activation. 4T1 is a murine breast cell line with Wnt activation and constitutive activation of IDO1.
In another study, 4T1 tumor cells were implanted in Balb/C mice and 4 days post-implant, the mice were randomized into two groups and treated with placebo or BCAT1. This dosing cycle was then repeated on days 9 and 10. Tumor growth was monitored by measuring the tumor sizes over the course of the treatment period. […] FIG. 1C.
(§3) Tumors were collected 48 hours after the last dose and were subjected to immunohistochemistry to look at β-catenin, CD8 and IDO1 levels. […] FIG. 3B. FIG. 3B. […] Tumor growth was monitored by measuring the tumor sizes over the course of the treatment period. […] FIG. 3C.

B16F10 tumors [3] = test: B16F10 tumor growth study; assay type: in vivo, C57BL/6 mice
Experimental: as §1, §2
In a similar study, B16F10 tumor cells were implanted in C57BL/6 mice and at day 5 post-implant, the mice were randomized into two groups and treated with placebo or BCAT1. This dosing cycle was then repeated on days 11 and 12. Tumor growth was monitored by measuring the tumor sizes over the course of the treatment period. […] FIG. 6C.
Tumor growth was monitored by measuring the tumor sizes over the course of the treatment period. […] FIG. 8C. […]

MMTV-Wnt tumors [4] = test: Immunohistochemistry of MMTV-Wnt tumors for β-catenin, CD8 and IDO1; assay type: in vivo, mice; details: tumors 24 hours after last dose
Experimental: (§4) In the MMTV-Wnt mouse model, mammary gland specific overexpression of Wnt1 with MMTV-LTR leads to spontaneous breast tumors with activated Wnt/β-catenin signaling. MMTV-Wnt mammary tumors spontaneously grow in mice in 3-6 months from the time of birth with Wnt pathway activation.
To see the effect of β-catenin inhibition on T cell infiltration and IDO1 levels in spontaneous tumors, the MMTV-Wnt1 model was used. The tumors were collected 24 hours after the last dose and subjected to immunohistochemistry to determine β-catenin, CD8, and IDO1 levels.
Tumors were collected 24 hours after the last dose and subjected to immunohistochemistry to determine β-catenin, CD8 and IDO1 levels.

4T1 tumors [5] = test: Immunohistochemistry of 4T1 tumors for β-catenin, CD8 and IDO1; assay type: in vivo, Balb/C mice; details: IDOi orally twice daily 100 mg/kg per dose days 6 and 8, tumors 48 hours after last dose, vs vehicle
B16F10 tumors [6] = test: Immunohistochemistry of B16F10 tumors for β-catenin, CD8 and IDO1; assay type: in vivo, C57BL/6 mice; details: IDOi orally twice daily 100 mg/kg per dose days 7 and 9, tumors 48 hours after last dose, vs vehicle
melanoma = details: epacadostat in combination with the PD-1 inhibitors pembrolizumab and nivolumab; Phase I/II; cited from earlier work
[7] = system: metastatic or recurrent squamous cell carcinoma of the head and neck, advanced urothelial cell carcinoma, and advanced renal cell carcinoma; details: epacadostat combination; cited from earlier work
IDO1 = IDO1 (Homo sapiens, UniProt P14902); details: cited from earlier work
Sequence of IDO1 (P14902 whole entry, species assumed): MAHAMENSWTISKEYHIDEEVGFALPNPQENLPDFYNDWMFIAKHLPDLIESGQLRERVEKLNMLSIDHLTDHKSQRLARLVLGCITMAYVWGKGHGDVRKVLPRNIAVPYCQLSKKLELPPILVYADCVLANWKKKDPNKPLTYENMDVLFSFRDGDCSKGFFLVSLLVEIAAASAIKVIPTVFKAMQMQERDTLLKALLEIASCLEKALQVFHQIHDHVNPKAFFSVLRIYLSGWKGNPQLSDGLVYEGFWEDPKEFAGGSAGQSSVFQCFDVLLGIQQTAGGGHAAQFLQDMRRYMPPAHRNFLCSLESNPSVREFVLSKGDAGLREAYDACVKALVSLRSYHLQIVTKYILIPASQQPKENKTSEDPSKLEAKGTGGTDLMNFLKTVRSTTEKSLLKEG

IDO2 = biological target: T1, IDO2 (Homo sapiens, UniProt Q6ZQW0); details: Pendergast et al., Cancer Research, 2017; cited from earlier work
T1 sequence (Q6ZQW0 1-407): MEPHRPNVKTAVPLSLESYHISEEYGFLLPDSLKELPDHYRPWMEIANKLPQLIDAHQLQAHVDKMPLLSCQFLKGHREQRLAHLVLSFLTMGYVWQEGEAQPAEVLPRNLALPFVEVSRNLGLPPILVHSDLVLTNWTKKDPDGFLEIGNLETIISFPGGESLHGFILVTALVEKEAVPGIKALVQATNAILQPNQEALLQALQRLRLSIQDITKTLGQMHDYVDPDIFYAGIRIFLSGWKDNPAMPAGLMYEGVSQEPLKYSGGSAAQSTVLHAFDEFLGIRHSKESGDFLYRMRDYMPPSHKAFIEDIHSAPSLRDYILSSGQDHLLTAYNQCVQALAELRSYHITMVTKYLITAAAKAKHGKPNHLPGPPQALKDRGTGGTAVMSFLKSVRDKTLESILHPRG

advanced melanoma = details: combined with pembrolizumab; Phase II study; cited from earlier work
multiple tumor types = test: Delivery of LNP formulated BCAT1 to tumors in models; assay type: in vivo
Text: The BCAT1 construct was formulated in EnCore lipid nanoparticles (LNP).

4T1 tumors [8] = test: Immunohistochemistry of 4T1 tumors for β-catenin, CD8 and IDO1; assay type: in vivo, Balb/C mice; details: BCAT1 3 mg/kg days 6, 7, 12, 13 post-implant, tumors 48 hours after last dose, vs placebo
Experimental: as §1, §2
Balb/C mice were implanted with 4T1 tumors. At six days post 4T1 tumor cell implantation, with the average tumor size of 150-200 mm^3, mice were sorted into two groups and were treated with either placebo or BCAT1 at 3 mg/kg on days 6 and 7 and days 12 and 13 post-implant, as shown in FIG. 1A. 48 hours after the last dose, tumors were collected and assayed by immunohistochemistry for β-catenin, CD8 and IDO1 protein levels.
as §3

4T1 tumors [9] = test: Flow cytometry of surface markers in 4T1 tumors; assay type: in vivo, Balb/C mice; details: BCAT1 3 mg/kg days 6, 7, 12, 13, tumors 24 hours after last dose, vs PBS
Experimental: In another similar study, mice bearing 4T1 tumors were treated with PBS or BCAT1 at 3 mg/kg on days 6 and 7 and days 12 and 13 post-implant, as shown in FIG. 2A. Tumors were collected 24 hours after the last dose and subjected to flow cytometry to measure surface markers on single-cell suspensions prepared from the extracted tumors. […] FIG. 2B. […] FIG. 2B. No effect was observed on the immunosuppressive MDSC cells. FIG. 2B.

B16F10 tumors [10] = test: Immunohistochemistry of B16F10 tumors for β-catenin, CD8 and IDO1; assay type: in vivo, C57BL/6 mice; details: BCAT1 3 mg/kg days 6, 7, 12, 13 post-implant, tumors 48 hours after last dose, vs placebo
Experimental: as §1, §2
C57BL/6 mice were implanted with B16F10 tumors. At six days post B16F10 tumor cell implantation, with the average tumor size of 200 mm^3, mice were sorted into two groups and were treated with either placebo or BCAT1 at 3 mg/kg on days 6 and 7 post-implant and again on days 12 and 13 post-implant, as shown in FIG. 6A. 48 hours after the last dose, tumors were collected and assayed by immunohistochemistry for β-catenin, CD8 and IDO1 protein levels. […] FIG. 6B.
Tumors were collected 48 hours after the last dose and were subjected to immunohistochemistry to analyze β-catenin, CD8 and IDO1 levels. […] FIG. 8B.

B16F10 tumors [11] = test: Flow cytometry of immune cell infiltrate in B16F10 tumors; assay type: in vivo, C57BL/6 mice; details: BCAT1 3 mg/kg days 6, 7, 12, 13, tumors 24 hours after last dose
Experimental: A similar study was run to monitor the levels of immune cell infiltrate after two rounds of BCAT1 treatment. B16F10 tumors were treated with PBS, placebo, or BCAT1 at 3 mg/kg on days 6 and 7 post-implant and again on days 12 and 13 post-implant, as shown in FIG. 7A. Tumors were collected 24 hours after the last dose and were subjected to flow cytometry. […] The MDSC cell population was not altered. FIG. 7B.

MMTV-Wnt tumors [12] = test: MMTV-Wnt tumor growth study; assay type: in vivo, mice
Experimental: as §4
In another study, MMTV-Wnt tumor-bearing mice were treated with BCAT1 at 3 mg/kg on study days 1, 2, 6, and 7 and tumor growth was monitored.

[13] = IDOi 30 mg/kg per dose twice a day for 3 consecutive days
[14] = BCAT1 5 mg/kg per dose study days 1, 2, 3, 5 mg/kg

Molecule: C[C@@H](C(=O)Nc1ccc(Cl)cc1)C1CCC(c2ccnc3ccc(F)cc23)CC1 (some centres unmarked) [BMS-986205]
- tolerability in patients with advanced cancers [1]: safely tolerated

Molecule: NS(=O)(=O)NCCNc1nonc1C(=NO)Nc1ccc(F)c(Br)c1 [IDOi, epacadostat]
- tumor growth as compared to placebo (4T1 tumors [2]; IDOi alone twice daily at 100 mg/kg per day on days 6 and 8 post-implant, 100 mg/kg/day): tumor growth inhibition; also recorded: inhibits tumor growth
- anti-tumor efficacy (tumor volume) (4T1 tumors [2]): modest anti-tumor efficacy
- tumor growth inhibition vs vehicle (B16F10 tumors [3]; IDOi twice daily 100 mg/kg per dose days 7 and 9, 100 mg/kg): did not result in any significant tumor growth inhibition; also recorded: does not significantly inhibit tumor growth
- CD8 levels (immunohistochemistry) (MMTV-Wnt tumors [4]; [13]): increases
- IDO1 levels (immunohistochemistry) (MMTV-Wnt tumors [4]; [13]): reduced the IDO1 levels almost completely; also recorded: reduces
- β-catenin levels (immunohistochemistry) (MMTV-Wnt tumors [4]; [13]): increases
- CD8 levels / CD8 T-cell infiltration (immunohistochemistry) (4T1 tumors [5]): only modestly altered; also recorded: increases
- IDO1 levels (immunohistochemistry) (4T1 tumors [5]): reduced the IDO1 levels almost completely; also recorded: decreases
- β-catenin levels (immunohistochemistry) (4T1 tumors [5]): only modestly altered; also recorded: decreases
- CD8 levels / CD8 T-cell infiltration (immunohistochemistry) (B16F10 tumors [6]): increases
- IDO1 levels (immunohistochemistry) (B16F10 tumors [6]): reduced the IDO1 levels almost completely; also recorded: decreases
- β-catenin levels (immunohistochemistry) (B16F10 tumors [6]): decreases
- clinical results in patients with melanoma (melanoma): positive early results
- efficacy in other tumors [7]: shown efficacy

Molecule: O=C1CC(c2c[nH]c3ccc(F)cc23)C(=O)N1 (centres unmarked) [PF-06840003]
- enzymes targeted / inhibited (IDO1, TDO) (IDO1): selectively target IDO1

Molecule: Cn1cc(C[C@@H](N)C(=O)O)c2ccccc21 [indoximod, 1-methyl-D-tryptophan]
- inhibition of IDO2 (IDO2): indirectly inhibit IDO2
- efficacy in patients with advanced melanoma (advanced melanoma): shown efficacy

B1: BCAT1: nucleic acid inhibitor molecule targeting the β-catenin gene; sense strand SEQ ID NO:1, antisense strand SEQ ID NO:2; formulated in EnCore lipid nanoparticles (nucleic acid)
sense: AGAAUACAAAUGAUGUAGAAACAGCC
antisense: UAGCUAUCGTGGCUGUUUCUACAUCAUUUGUAUUCUGC
modifications: formulated in lipid nanoparticles, chemistry not given here
- Delivery of BCAT1 to Various Tumor Types (multiple tumor types; HCT116, DLD1, HL60): Negative: HCT116, DLD1, HL60
- Delivery of BCAT1 to Various Tumor Types (multiple tumor types; LNP formulated BCAT1, tumor types of Table I (subcutaneous, orthotopic, disseminated, metastatic xenograft, PDX, GEM)): effectively deliver the nucleic acid payload to multiple tumor types
- CD8 protein levels / CD8 T-cell infiltration (immunohistochemistry) (4T1 tumors [8]): increases
- IDO1 protein levels (immunohistochemistry) (4T1 tumors [8]): did not reduce the IDO1 levels significantly; also recorded: does not significantly reduce
- β-catenin protein levels (immunohistochemistry) (4T1 tumors [8]): decreases
- tumor growth inhibition (4T1 tumors [2]; BCAT1 alone 3 mg/kg days 4, 5, 9, 10, vs placebo): about 40%
- anti-tumor efficacy (tumor volume) (4T1 tumors [2]): modest anti-tumor efficacy
- tumor growth as compared to placebo (4T1 tumors [2]; two cycles of BCAT1 treatment): inhibits tumor growth
- LAG-3 checkpoint, flow cytometry (4T1 tumors [9]): significant increases
- MDSC cells, flow cytometry (4T1 tumors [9]): No effect; also recorded: does not significantly alter
- PD-1 checkpoint, flow cytometry (4T1 tumors [9]): significant increases
- Regulatory T cells (Tregs), flow cytometry (4T1 tumors [9]): significantly increased; also recorded: increases
- Tim-3 checkpoint, flow cytometry (4T1 tumors [9]): significant increases
- cytotoxic T-cells (CD8+), flow cytometry (4T1 tumors [9]): significant increases
- CD8 protein levels / CD8 T-cell infiltration (immunohistochemistry) (B16F10 tumors [10]): increases
- IDO1 protein levels (immunohistochemistry) (B16F10 tumors [10]): decreased; also recorded: reduces
- β-catenin protein levels (immunohistochemistry) (B16F10 tumors [10]): decreases
- tumor growth as compared to placebo (B16F10 tumors [3]; BCAT1 single agent 3 mg/kg days 5, 6, 11, 12): did not significantly inhibit tumor growth; also recorded: does not significantly inhibit tumor growth
- CD8 T cells, flow cytometry (B16F10 tumors [11]): elevated; also recorded: increases
- LAG-3 checkpoint, flow cytometry (B16F10 tumors [11]): elevated; also recorded: increases
- MDSC cell population, flow cytometry (B16F10 tumors [11]): not altered; also recorded: does not significantly alter
- PD-1 checkpoint, flow cytometry (B16F10 tumors [11]): elevated; also recorded: increases
- Tim-3 checkpoint, flow cytometry (B16F10 tumors [11]): elevated; also recorded: increases
- level of Tregs, flow cytometry (B16F10 tumors [11]; as compared to PBS): did not significantly change; also recorded: does not significantly alter
- CD8 levels / CD8 T-cell infiltration (immunohistochemistry) (MMTV-Wnt tumors [4]; [14]): increases
- IDO1 levels (immunohistochemistry) (MMTV-Wnt tumors [4]; [14]): unchanged; also recorded: does not significantly reduce
- β-catenin levels (immunohistochemistry) (MMTV-Wnt tumors [4]; [14]): decreases
- tumor growth inhibition (MMTV-Wnt tumors [12]; BCAT1 alone 3 mg/kg study days 1, 2, 6, 7): about 50%
- tumor growth as compared to placebo (MMTV-Wnt tumors [12]; two cycles of BCAT1 treatment): inhibits tumor growth
